First the molecules themselves.
B1: unnamed (parent)
chain 1: MFGLGHNSKEISMSHIGTKFILAEKFTFDPLSNTLIDKEDSEEIIRLGSNESRILWLLAQRPNEVISRNDLHDFVWREQGFEVDDSSLTQAISTLRKMLKDSTKSPQYVKTVPKRGYQLIARVETVEEEMARESEAAHDISQPESVNEYAESSSVPSSATVVNTPQPANVVTNKSAPNLGNRLLILIAVLLPLAVLLLTNPSQTSFKPLTVVDGVAVNMPNNHPDLSNWLPSIELCVKKYNEKHTGGLKPIEVIATGGQNNQLTLNYIHSPEVSGENITLRIVANPNDAIKVCE
chain 2: MGYVRVIYQFPDNLWWNECTNQVYYAQDPMKPERLIGTPSIIQTKLLKILCEYHPAPCPNDQIIKALWPHGFISSESLTQAIKRTRDFLNDEHKTLIENVKLQGYRINIIQVIVSENVVDEADCSQKKSVKERIKIEWGKINVVPYLVFSALYVALLPVIWWSYGQWYQHELAGITHDLRDLARLPGITIQKLSEQKLTFAIDQHQCSVNYEQKTLECTKN

In the assay the parent is B1. Conditions: with partner chain of the complex shown; parent: 100; read off a plot.
In the case of chain 1 K114A, the percent of parent (% capture relative to wild-type ToxR) turned out to be 110. The result for chain 1 Q107A reads 92; that for chain 1 S102A T103A Q107A V112A, 63; that for chain 1 I120A, 90. In the case of chain 1 S102A, the percent of parent (% capture relative to wild-type ToxR) came out at 84.

Source of the values: article PMC6733452.
